Results taken from article PMC3341331 (2012).
Where a chain is given by its changes, count along the chain named.

B1: humanized DB32-6 monoclonal antibody (antibody, V domains shown)
VH: EVQLQQSGAELVKPGASVNLSCTASGFNIKDTYIHWVKQRPEQGLEWIGRIDPENGNAKYDPNFQAKATIAADTSSNTAYLQLSSLTSEDTAVYYCVRTGSFWYFDVWGQGTLVTVSS
VL: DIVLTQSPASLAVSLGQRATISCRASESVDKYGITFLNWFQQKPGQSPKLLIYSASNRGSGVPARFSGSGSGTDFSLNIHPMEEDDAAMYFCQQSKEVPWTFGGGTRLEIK
B2: murine DB32-6 monoclonal antibody (antibody)
chain 1: B1 VH with E1Q, N19K, E42G, A71T, Q82H, C96S, Q110A, L113T
chain 2: not shown

Target: T1, recombinant E protein domain III of DENV-2, flag and hexahistidine tagged (dengue virus type 2)
T1 chain: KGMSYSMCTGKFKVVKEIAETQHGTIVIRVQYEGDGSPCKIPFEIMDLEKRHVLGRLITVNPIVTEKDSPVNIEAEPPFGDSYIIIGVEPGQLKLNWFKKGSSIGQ
Assay: SPR

Binder | koff [s⁻¹]
B1 | 1.7e-06
B2 | 1.7e-06
